Measured values: PMC4317691, “Stability of glucagon-like peptide 1 and glucagon in human plasma” (Endocrine Connections, 2015)

How the values were obtained:
[1] = human plasma, no ice
Experimental: GLP-1 and glucagon (0 and 40 pmol/l) were added to the portions, whereafter they were stored at either room temperature or on ice for 1 h and measured (as described below plasma samples after extraction and buffer samples directly).

[2] = Experimental: The aliquots (N=6–8) of spiked plasma were then: i) immediately extracted with ethanol (final concentration 70%, for this treatment we used N=21); ii) subjected to one freeze–thaw cycle (placed at −20 °C for ∼1 h followed by thawing in an ice bath) and extracted (using 70% ethanol, final concentration) immediately upon thawing; iii) subjected to two freeze–thaw cycles and extracted immediately upon second thawing; iv) subjected to three freeze–thaw cycles and extracted immediately upon third thawing; v) kept on ice for 1 h and extracted immediately after; vi) kept on ice for 3 h and extracted immediately after; vii) kept without ice for 1 h at RT and extracted immediately after; viii) kept without ice for 3 h and extracted immediately after.
Later, an additional plasma pool was prepared of fresh plasma from some (n=5) of the healthy subjects contributing to the first pool, spiked with glucagon (0 and 40 pmol/l, final concentration), and aliquoted. Thereafter, the valiquots were kept on ice for up to 24 h. These aliquots (N=6–8 for each time point) were extracted after 1, 3, 6, 12, and 24 h, respectively, measured (see below) and compared with a set of aliquots extracted immediately after spiking with peptide. […] After extraction, peptide concentrations were analyzed using the assays described below. […]

[3] = remark: listed apart in the source
Experimental: From each of the original spiked plasma portions, eight to ten aliquots were distributed into low-adsorption Nunc tubes (VWR-Bie&Berntsen A/S, Herlev, Denmark). One set of samples (N=8–10) was extracted and analyzed immediately to serve as controls. The remaining eight sets were divided into two and stored at −20 °C or −80 °C. Samples (N=8–10) from each set were analyzed after 1, 3, 6, and 12 months of storage. In addition, seven portions of the new plasma pool as well as assay buffer (to which was added 6% human serum albumin (HSA) to mimick plasma), spiked with 0 and 40 pmol/l of glucagon (N=5 for each set of spiked samples), were assayed (plasma after extraction) after freezing (at −20 °C) for 0 (i.e., they were measured immediately without freezing), 1, 3, 6, 12, 24, and 72 h of storage at −20 °C.
The recovery in percent was calculated as the measured concentration in the individual, spiked plasma sample minus the concentration in the corresponding non-spiked plasma sample divided by the theoretical spiked concentration of peptide and multiplied by 100. For the presentation of data, we normalized the recovery after each treatment by adjusting for the recovery of the samples extracted immediately, set as 100% (Table 1). Differences between treatments were analyzed by one-way ANOVA for repeated measurement with post hoc Bonferroni correction. […]

[4] = Stability of glucagon in frozen assay buffer with 6% HSA; type: physicochemical; settings: 40 pmol/l, -20 °C for up to 72 h

Row | Compound | Recovery of intact GLP-1 on addition of a DPP4 inhibitor [1] | Glucagon recovery at RT for 3 h, N-terminal-specific assay [2] | Glucagon stability at RT for 1 h [2] | Loss of glucagon recovery after 1 month of frozen storage [3] | Recovery of glucagon in buffer after freezing [4]
1 | CC[C@H](C)[C@H](NC(=O)[C@H](Cc1ccccc1)NC(=O)[C@H](CCC(=O)O)NC(=O)[C@H](CCCCN)NC(=O)[C@H](C)NC(=O)[C@H](C)NC(=O)[C@H](CCC(N)=O)NC(=O)CNC(=O)[C@H](CCC(=O)O)NC(=O)[C@H](CC(C)C)NC(=O)[C@H](Cc1ccc(O)cc1)NC(=O)[C@H](CO)NC(=O)[C@H](CO)NC(=O)[C@@H](NC(=O)[C@H](CC(=O)O)NC(=O)[C@H](CO)NC(=O)[C@@H](NC(=O)[C@H](Cc1ccccc1)NC(=O)[C@@H](NC(=O)CNC(=O)[C@H](CCC(=O)O)NC(=O)[C@H](C)NC(=O)[C@@H](N)Cc1c[nH]cn1)[C@@H](C)O)[C@@H](C)O)C(C)C)C(=O)N[C@@H](C)C(=O)N[C@@H](Cc1c[nH]c2ccccc12)C(=O)N[C@@H](CC(C)C)C(=O)N[C@H](C(=O)N[C@@H](CCCCN)C(=O)NCC(=O)N[C@@H](CCCNC(=N)N)C(N)=O)C(C)C [GLP-1 7–36NH2] | increased |  |  |  | 
2 | glucagon 1–29 |  | significant (P=0.02) reduction | relatively stable | about 50% | unaffected
